Common to all, as to test: cell-based or functional assay
Assay [1] concerns the target human melanocortin 1 receptor (human, UniProt Q01726 1-317).
Assay [2] has as its target human melanocortin 4 receptor (human, UniProt P32245 1-332).
The target in assay [3] is mouse melanocortin 1 receptor (mouse, UniProt Q01727 1-315).
Assay [4] addresses mouse melanocortin 5 receptor (mouse, UniProt P41149 1-325).
For assay [5], the target named is mouse melanocortin 3 receptor (mouse, UniProt P33033 1-323).
Chain of mouse melanocortin 3 receptor (P33033 whole entry): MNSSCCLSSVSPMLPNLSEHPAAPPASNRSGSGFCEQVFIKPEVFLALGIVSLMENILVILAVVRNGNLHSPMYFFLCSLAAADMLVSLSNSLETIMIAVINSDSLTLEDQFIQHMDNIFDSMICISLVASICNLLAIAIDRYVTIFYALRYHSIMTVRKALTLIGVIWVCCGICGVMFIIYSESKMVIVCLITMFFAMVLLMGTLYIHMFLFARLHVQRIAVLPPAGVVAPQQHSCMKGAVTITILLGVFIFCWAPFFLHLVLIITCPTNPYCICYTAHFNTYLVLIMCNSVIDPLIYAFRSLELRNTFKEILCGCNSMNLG
In assay [6] the target is human melanocortin 3 receptor (human, UniProt P41968 1-323).
Chain of human melanocortin 3 receptor (P41968 whole entry): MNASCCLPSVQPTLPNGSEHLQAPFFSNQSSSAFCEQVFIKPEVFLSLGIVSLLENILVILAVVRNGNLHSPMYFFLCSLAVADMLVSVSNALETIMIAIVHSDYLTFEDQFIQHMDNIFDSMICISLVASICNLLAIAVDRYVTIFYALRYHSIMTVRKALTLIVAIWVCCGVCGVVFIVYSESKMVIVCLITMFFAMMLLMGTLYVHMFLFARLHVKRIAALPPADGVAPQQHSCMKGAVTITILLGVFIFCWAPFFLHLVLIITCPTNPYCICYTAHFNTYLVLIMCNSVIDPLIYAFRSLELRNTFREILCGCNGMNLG

Bridge positions count the residues as written; N and C are the ends. Ends that are not written are not given here.

Chain of human melanocortin 1 receptor (Q01726 whole entry): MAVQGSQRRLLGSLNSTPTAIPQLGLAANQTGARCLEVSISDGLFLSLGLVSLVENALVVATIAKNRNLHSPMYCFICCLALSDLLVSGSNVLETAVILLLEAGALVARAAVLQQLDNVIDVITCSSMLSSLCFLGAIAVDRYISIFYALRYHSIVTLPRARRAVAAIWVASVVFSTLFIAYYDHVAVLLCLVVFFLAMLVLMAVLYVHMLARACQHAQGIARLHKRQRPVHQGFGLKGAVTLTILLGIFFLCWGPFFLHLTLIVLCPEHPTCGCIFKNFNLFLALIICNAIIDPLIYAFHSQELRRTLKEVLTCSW
Chain of mouse melanocortin 5 receptor (P41149 whole entry): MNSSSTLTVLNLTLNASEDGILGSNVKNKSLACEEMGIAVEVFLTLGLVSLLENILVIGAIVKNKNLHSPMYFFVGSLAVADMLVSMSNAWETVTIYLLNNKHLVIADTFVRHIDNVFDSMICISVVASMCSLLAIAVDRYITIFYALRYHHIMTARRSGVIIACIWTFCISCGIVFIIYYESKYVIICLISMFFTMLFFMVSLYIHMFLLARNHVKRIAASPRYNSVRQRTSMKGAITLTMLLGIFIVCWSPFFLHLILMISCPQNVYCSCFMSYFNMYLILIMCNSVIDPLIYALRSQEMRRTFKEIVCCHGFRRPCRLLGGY
Chain of human melanocortin 4 receptor (P32245 whole entry): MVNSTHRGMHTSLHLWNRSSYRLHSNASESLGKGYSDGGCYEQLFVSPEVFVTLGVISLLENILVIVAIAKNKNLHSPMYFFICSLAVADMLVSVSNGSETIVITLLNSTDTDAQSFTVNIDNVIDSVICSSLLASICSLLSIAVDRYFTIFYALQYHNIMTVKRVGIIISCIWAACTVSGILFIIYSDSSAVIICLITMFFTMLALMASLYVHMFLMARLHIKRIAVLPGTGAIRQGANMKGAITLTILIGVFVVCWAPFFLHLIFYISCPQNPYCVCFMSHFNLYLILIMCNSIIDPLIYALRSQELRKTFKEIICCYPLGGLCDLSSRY
Chain of mouse melanocortin 1 receptor (Q01727 whole entry): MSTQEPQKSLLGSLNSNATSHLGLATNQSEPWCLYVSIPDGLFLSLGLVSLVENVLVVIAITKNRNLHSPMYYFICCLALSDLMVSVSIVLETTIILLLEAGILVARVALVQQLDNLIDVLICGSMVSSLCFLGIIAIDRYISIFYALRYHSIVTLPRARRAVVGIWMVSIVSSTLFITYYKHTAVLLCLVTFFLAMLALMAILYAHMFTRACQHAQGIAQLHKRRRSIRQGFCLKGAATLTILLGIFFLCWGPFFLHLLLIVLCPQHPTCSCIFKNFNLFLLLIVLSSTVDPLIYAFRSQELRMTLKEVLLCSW

For the molecule DHYNCVSSGGQCLYSACPIFTKIQGTCYRGKAKCCK (peptide, UniProt P60022 33-68, looked up, oxidized form (disulfide bonds formed)) [human β-defensin 1, oxidized form], the “cAMP agonist EC50 (AlphaScreen cAMP assay, HEK293 cells expressing the receptor)” value (shortened to “cAMP agonist EC50”) in assay [1] was determined as 7.4 µM.

As for DQYKCLQHGGFCLRSSCPSNTKLQGTCKPDKPNCCKS (peptide, UniProt P56386 33-69, looked up, disulfide 12-27, 17-35, 5-34) [mouse β-defensin 1, oxidized form], the “cAMP agonist EC50” value in assay [2] turned out to be 3.8 µM; in assay [3] it was 11 µM; in assay [4], 5.2 µM; in assay [5], 14 µM; in assay [6], 22 µM; in assay [1], 1.4 µM.

Consider GIINTLQKYYCRVRGGRCAVLSCLPKEEQIGKCSTRGRKCCRRKK (peptide, UniProt P81534 23-67, looked up, oxidized, folded form (disulfide bonds formed)) [human β-defensin 3, oxidized, folded form], for which the “cAMP agonist EC50” value is 2.6 µM in assay [2], 2.2 µM in assay [3], 4.7 µM in assay [4] and 0.4 µM in assay [1].

Source of the values: publication PMC6007841 (Journal of medicinal chemistry, 2018).
